Assay results from publication PMC3753931.

T1: GST-Xl-dsRBD (XlrbpA dsRBD2) (Xenopus laevis) (UniProt Q91836)
T1 sequence: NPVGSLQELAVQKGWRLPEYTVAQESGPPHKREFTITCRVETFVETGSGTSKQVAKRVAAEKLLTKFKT

T2: GST-Xl-dsRBD (XlrbpA dsRBD2) (Xenopus laevis, UniProt Q91836 112-180)
T2 sequence: T1 sequence

B1: 21blunt (dsRNA)
RNA 1: AAGUCACAUUGCCCAAGUCUC
RNA 2: GAGACUUGGGCAAUGUGACUU

What was measured:
[1] = molecular target: T1, GST-Xl-dsRBD (XlrbpA dsRBD2) (Xenopus laevis); assay: EMSA; settings: scale: fold higher affinity than P1
[2] = molecular target: T2, GST-Xl-dsRBD (XlrbpA dsRBD2); assay: EMSA

Row | Molecule | binding signal [1] | binding result [2]
1 | 50-bp dsRNA | 30 | –
2 | 30-bp dsRNA | 30 | –
3 | 130-bp dsRNA | 30 | –
4 | 70-bp dsRNA | 30 | –
5 | B1 | – | binds
